Variants at the floor of the assay were thinned out.
How the values were obtained:
biotinyl-Met-oxazolone = test: self-aminoacylation, catalytic enhancement (BMO) (fold over background); higher = more active; k-Seq, kA / k0A0; sequences stand for … in GGGAAUGGAUCCACAUCUACGAAUUC…UUCACUGCAGACUUGACGAAGCUG
In short: (§1)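 Catalytic enhancement equals the median kA over the uncatalyzed rate, the latter read from the low-activity peak of a bimodal Gaussian fit. Values of kA came from fitting each sequence's fraction reacted to a pseudo-first-order model, with 1000 bootstraps. Reacted RNA was captured with streptavidin and quantified by triplicate qPCR and Illumina sequencing after 90 minutes at room temperature with 2–1250 μM biotinyl-aminoacyl-oxazolone and 0.43 μM mutagenized RNA pools bearing a 21-nt variable region.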

biotinyl-Ile-oxazolone = test: self-aminoacylation, catalytic enhancement (BIO) (fold over background); higher = more active; k-Seq, kA / k0A0; sequences stand for … in GGGAAUGGAUCCACAUCUACGAAUUC…UUCACUGCAGACUUGACGAAGCUG
In short: as §1

biotinyl-Val-oxazolone = test: self-aminoacylation, catalytic enhancement (BVO) (fold over background); higher = more active; k-Seq, kA / k0A0; sequences stand for … in GGGAAUGGAUCCACAUCUACGAAUUC…UUCACUGCAGACUUGACGAAGCUG
In short: as §1

biotinyl-Phe-oxazolone = test: self-aminoacylation, catalytic enhancement (BFO) (fold over background); higher = more active; k-Seq, kA / k0A0; sequences stand for … in GGGAAUGGAUCCACAUCUACGAAUUC…UUCACUGCAGACUUGACGAAGCUG
In short: as §1

biotinyl-Leu-oxazolone = test: self-aminoacylation, catalytic enhancement (BLO) (fold over background); higher = more active; k-Seq, kA / k0A0; sequences stand for … in GGGAAUGGAUCCACAUCUACGAAUUC…UUCACUGCAGACUUGACGAAGCUG
In short: as §1

biotinyl-Trp-oxazolone = test: self-aminoacylation, catalytic enhancement (BWO) (fold over background); higher = more active; k-Seq, kA / k0A0; sequences stand for … in GGGAAUGGAUCCACAUCUACGAAUUC…UUCACUGCAGACUUGACGAAGCUG
In short: as §1

| Sequence | self-aminoacylation (biotinyl-Met-oxazolone) | self-aminoacylation (biotinyl-Ile-oxazolone) | self-aminoacylation (biotinyl-Val-oxazolone) | self-aminoacylation (biotinyl-Phe-oxazolone) | self-aminoacylation (biotinyl-Leu-oxazolone) | self-aminoacylation (biotinyl-Trp-oxazolone) |
| --- | --- | --- | --- | --- | --- | --- |
| CCACCCUUCAAGCAAUUGGUC [Fam1B.1 aminoacylation ribozyme variant] | 0.907 | 0.814 | 0.984 | 1.33 | 0.814 | 1.04 |
| CUACUUCAAACAACCGGUCUC [Fam1A.1 aminoacylation ribozyme variant] | 0.724 | 0.933 | 0.728 | 0.745 | 0.619 | 0.734 |
| UUUCACCUAGGUCAACGGGUG [Fam2.2 aminoacylation ribozyme variant] | 3 | 2.27 | 2.25 | 15.6 | 2.65 | 3.09 |
| AUUAACCUGGUCAUCGACUGA [Fam2.1 aminoacylation ribozyme variant] | 0.801 | 0.842 | 0.746 | 0.674 | 0.938 | 0.612 |
| AUUCACCUAGGUGAUGGGGUG [Fam2.2 aminoacylation ribozyme variant] | 2.65 | 2.02 | 2.21 | 14.4 | 2.81 | 2.65 |
| AAAUUUGCUAAUAGUGGCAAG [Fam3.1 aminoacylation ribozyme variant] | 0.697 | 1.01 | 0.74 | 0.608 | 0.7 | 0.533 |
| AUUACACUAGUCAUCGAGUGA [Fam2.1 aminoacylation ribozyme variant] | 4.79 | 3.05 | 2.51 | 16.9 | 5.19 | 6.55 |
| CUACUUCAAAAGAUCGGUCUG [Fam1A.1 aminoacylation ribozyme variant] | 0.728 | 0.973 | 0.724 | 1.08 | 0.859 | 0.938 |
| CUUCUUCAAAGAAUCGGUCUG [Fam1A.1 aminoacylation ribozyme variant] | 1.05 | 0.956 | 0.889 | 3.04 | 1.07 | 2.95 |
| AUUAACCUCGUCAUCGAGUGA [Fam2.1 aminoacylation ribozyme variant] | 3.27 | 2.33 | 2.25 | 3.89 | 2.82 | 4.68 |
| AUAACCCUGGUCAUCGGGUGA [Fam2.1 aminoacylation ribozyme variant] | 31.3 | 12.1 | 13.4 | 183 | 35.6 | 35.3 |
| AAGUUUGCGAAUUGUCGCAAG [Fam3.1 aminoacylation ribozyme variant] | 2.15 | 1.77 | 2.23 | 6.83 | 1.94 | 2.19 |
| AGUACCCUGGUUAUCGAGUGA [Fam2.1 aminoacylation ribozyme variant] | 7.87 | 3.63 | 4.26 | 37.4 | 9.55 | 9.24 |
| CUAAUUCAAACAACCGGUCUG [Fam1A.1 aminoacylation ribozyme variant] | 0.958 | 0.947 | 0.754 | 0.916 | 0.724 | 0.69 |
| AUUCACCUAGGUCAUUUGGUG [Fam2.2 aminoacylation ribozyme variant] | 3.31 | 2.13 | 2.03 | 21.2 | 4.82 | 3.43 |
| AUUCACCUAAGACAUCGGGUG [Fam2.2 aminoacylation ribozyme variant] | 4.49 | 3.05 | 3.13 | 33.4 | 5.92 | 4.54 |
| CCACACUUGAAGCAAUCGGUU [Fam1B.1 aminoacylation ribozyme variant] | 1.32 | 1.18 | 1.45 | 0.703 | 1.14 | 2.47 |
| GCACACUUGAAGCAAUCGGUC [Fam1B.1 aminoacylation ribozyme variant] | 1.11 | 1.45 | 1.4 | 1.46 | 1.29 | 1.99 |
| CCACACUUCAAGCAACCGAUC [Fam1B.1 aminoacylation ribozyme variant] | 0.559 | 0.665 | 0.684 | 1.05 | 0.45 | 0.75 |
| AUGCACCUAGGUCAUGGGGUG [Fam2.2 aminoacylation ribozyme variant] | 4.33 | 3.85 | 3.42 | 31.3 | 4.53 | 5.66 |
| CCACACUUCCACCAAUCGGUC [Fam1B.1 aminoacylation ribozyme variant] | 0.51 | 0.908 | 0.962 | 0.478 | 0.643 | 0.847 |

| Sequence | self-aminoacylation (biotinyl-Met-oxazolone) | self-aminoacylation (biotinyl-Ile-oxazolone) | self-aminoacylation (biotinyl-Val-oxazolone) | self-aminoacylation (biotinyl-Phe-oxazolone) | self-aminoacylation (biotinyl-Leu-oxazolone) | self-aminoacylation (biotinyl-Trp-oxazolone) |
| --- | --- | --- | --- | --- | --- | --- |
| AUUCACCUAGGCCAUGGGGUG [Fam2.2 aminoacylation ribozyme variant] | 8.03 | 4.58 | 3.87 | 42.5 | 10.2 | 6.1 |
| AAGUCUGCCAAUAGUCGCAAG [Fam3.1 aminoacylation ribozyme variant] | 1.84 | 1.18 | 1.06 | 1.53 | 0.879 | 1.28 |
| CUACUUCAAUCAAUCCGUCUG [Fam1A.1 aminoacylation ribozyme variant] | 0.664 | 0.758 | 0.672 | 0.657 | 0.694 | 0.695 |
| CUAGUUCAAACAAUAGGUCUG [Fam1A.1 aminoacylation ribozyme variant] | 0.949 | 1.04 | 0.952 | 0.923 | 1.09 | 0.721 |
| AAGUUUGCUAUUAGUCACAAG [Fam3.1 aminoacylation ribozyme variant] | 1.24 | 1.19 | 1.3 | 1.85 | 1.16 | 1.28 |
| CUACUUCAAAGAAUCGGUCUG [Fam1A.1 aminoacylation ribozyme variant] | 0.759 | 0.777 | 0.76 | 6.52 | 0.883 | 4.78 |
| AUUCAACUAGGUCAUCGGGGG [Fam2.2 aminoacylation ribozyme variant] | 1.59 | 1.75 | 1.66 | 0.813 | 1.86 | 2.56 |
| AUUCACCUAGGUCAUCCUGUG [Fam2.2 aminoacylation ribozyme variant] | 0.923 | 1.13 | 0.885 | 1.42 | 1.04 | 0.316 |
| AUUACCGUGUUCAUCGAGUGA [Fam2.1 aminoacylation ribozyme variant] | 6.78 | 3.72 | 3.92 | 20.2 | 6.23 | 8.08 |
| AUAAUCCUGGUCAUCGAGUGA [Fam2.1 aminoacylation ribozyme variant] | 7.24 | 3.72 | 3.48 | 9.11 | 6.95 | 7.96 |
| CUUACCCUGGUCAGCGAGUGA [Fam2.1 aminoacylation ribozyme variant] | 4.38 | 3.42 | 3.69 | 29.2 | 6.11 | 7.19 |
| CCACACUUCAAGAAAUCGUUC [Fam1B.1 aminoacylation ribozyme variant] | 0.482 | 0.472 | 0.602 | 0.735 | 0.529 | 0.399 |
| AUGUUUGCUAAUAGUCCCAAG [Fam3.1 aminoacylation ribozyme variant] | 0.965 | 1.08 | 1.11 | 2.79 | 0.966 | 1.25 |
| AUACACCUAGGUCCUCGGGUG [Fam2.2 aminoacylation ribozyme variant] | 2.71 | 3.44 | 3.57 | 21.8 | 3.48 | 3.71 |
| AUUCACCAAGGUCCUCGGGUG [Fam2.2 aminoacylation ribozyme variant] | 8.8 | 4.66 | 5.39 | 76.6 | 11 | 8.35 |
| AGGUUUGCUAAUAGUCUCAAG [Fam3.1 aminoacylation ribozyme variant] | 1.36 | 1.17 | 1.22 | 9.24 | 1.22 | 2.89 |
| AUUCAUCUAGUUCAUCGGGUG [Fam2.2 aminoacylation ribozyme variant] | 2.83 | 2.13 | 2.21 | 12.6 | 3.27 | 3.1 |
| CUAAUUCAAACAAUAGGUCUG [Fam1A.1 aminoacylation ribozyme variant] | 0.704 | 0.773 | 0.77 | 1.11 | 0.706 | 0.666 |
| AAGCUUGCUAAUAGUCGCCAG [Fam3.1 aminoacylation ribozyme variant] | 2.39 | 2.3 | 2.33 | 14.9 | 2.63 | 3.3 |
| CUACUUCAGACUAUCGGUCUG [Fam1A.1 aminoacylation ribozyme variant] | 0.734 | 0.816 | 0.943 | 0.949 | 0.832 | 0.939 |
| AUUAACCUGGUCAUCGAGUCA [Fam2.1 aminoacylation ribozyme variant] | 0.763 | 0.698 | 0.711 | 0.5 | 0.662 | 0.405 |

From the supplement of paper PMC9233669
